Here are results for 7 sequences from the supplement of paper PMC11246515.

± gives the standard deviation of the averaged measurements.

This data set in a line: total protein half-life in vivo (active degradation + dilution); higher = more stable protein.
Setting [1] is: E. coli NCM3722 delta-clpP delta-lon delta-hslV, growth: N-lim chemostat, doubling time 6 h.
Setting [2] is: E. coli NCM3722 delta-clpP, growth: N-lim chemostat, doubling time 6 h.
Setting [3] is: E. coli NCM3722 delta-lon, growth: N-lim chemostat, doubling time 6 h.
Setting [4] is: E. coli NCM3722 delta-smpB, growth: N-lim chemostat, doubling time 6 h.
The mark [5] stands for this setting: wild type E. coli NCM3722, growth: C-lim chemostat, doubling time 3 h.
Where [6] appears, read: wild type E. coli NCM3722, growth: C-lim chemostat, doubling time 6 h.
Where [7] appears, read: wild type E. coli NCM3722, growth: C-lim chemostat, doubling time 12 h.
Where [8] appears, read: wild type E. coli NCM3722, growth: N-lim chemostat, doubling time 6 h.
Setting [9] is: wild type E. coli NCM3722, growth: N-lim chemostat, doubling time 12 h.
[10] abbreviates: wild type E. coli NCM3722, growth: P-lim chemostat, doubling time 6 h.
[11] abbreviates: wild type E. coli NCM3722, growth: P-lim chemostat, doubling time 12 h.
The mark [12] stands for this setting: E. coli NCM3722 delta-hslV, growth: N-lim chemostat, doubling time 6 h.

For the sequence “MPHHIVIVEDEPVTQARLQSYFTQEGYTVSVTASGAGLREIMQNQSVDLILLDINLPDENGLMLTRALRERSTVGIILVTGRSDRIDRIVGLEMGADDYVTKPLELRELVVRVKNLLWRIDLARQAQPHTQDNCYRFAGYCLNVSRHTLERDGEPIKLTRAEYEMLVAFVTNPGEILSRERLLRMLSARRVENPDLRTVDVLIRRLRHKLSADLLVTQHGEGYFLAADVC”, the “total protein half-life in vivo” value reads like this: under setting [1], 5.18 ± 0.63 h; under setting [2], 4.57 ± 0.43 h; under setting [3], 4.9 h; under setting [4], 3.92 ± 0.089 h; under setting [5], 2.78 ± 0.039 h; under setting [6], 5.13 ± 0.33 h. Moreover, the “total protein half-life in vivo” value under setting [7] is 9.618 ± 0.075 h; the “total protein half-life in vivo” value under setting [8] amounted to 3.89 ± 0.33 h; the “total protein half-life in vivo” value under setting [9] was 5.93 h; the “total protein half-life in vivo” value under setting [10] stood at 4.28 h; the “total protein half-life in vivo” value under setting [11] was 9.93 ± 0.41 h.

For the sequence “MIKFLSALILLLVTTAAQAERIRDLTSVQGVRQNSLIGYGLVVGLDGTGDQTTQTPFTTQTLNNMLSQLGITVPTGTNMQLKNVAAVMVTASLPPFGRQGQTIDVVVSSMGNAKSLRGGTLLMTPLKGVDSQVYALAQGNILVGGAGASAGGSSVQVNQLNGGRITNGAVIERELPSQFGVGNTLNLQLNDEDFSMAQQIADTINRVRGYGSATALDARTIQVRVPSGNSSQVRFLADIQNMQVNVTPQDAKVVINSRTGSVVMNREVTLDSCAVAQGNLSVTVNRQANVSQPDTPFGGGQTVVTPQTQIDLRQSGGSLQSVRSSASLNNVVRALNALGATPMDLMSILQSMQSAGCLRAKLEII [P0A6S3]”, the “total protein half-life in vivo” value under setting [5] was 2.203 ± 0.022 h, the “total protein half-life in vivo” value under setting [6] was 4.68 h and the “total protein half-life in vivo” value under setting [7] is 8.58 ± 1.3 h.

For “MSFNTIIDWNSCTAEQQRQLLMRPAISASESITRTVNDILDNVKARGDEALREYSAKFDKTTVTALKVSAEEIAAASERLSDELKQAMAVAVKNIETFHTAQKLPPVDVETQPGVRCQQVTRPVASVGLYIPGGSAPLFSTVLMLATPASIAGCKKVVLCSPPPIADEILYAAQLCGVQDVFNVGGAQAIAALAFGTESVPKVDKIFGPGNAFVTEAKRQVSQRLDGAAIDMPAGPSEVLVIADSGATPDFVASDLLSQAEHGPDSQVILLTPAADMARRVAEAVERQLAELPRAETARQALNASRLIVTKDLAQCVEISNQYGPEHLIIQTRNARELVDSITSAGSVFLGDWSPESAGDYASGTNHVLPTYGYTATCSSLGLADFQKRMTVQELSKEGFSALASTIETLAAAERLTAHKNAVTLRVNALKEQA”, the “total protein half-life in vivo” value runs as follows: under setting [1], 4.6 ± 0.29 h; under setting [2], 4.43 ± 0.94 h; under setting [12], 3.96 ± 0.073 h; under setting [3], 4.89 ± 0.47 h; under setting [4], 4.3 ± 0.25 h; under setting [5], 3.3 ± 0.18 h. For the same sequence, the “total protein half-life in vivo” value runs as follows: under setting [6], 5.97 ± 0.23 h; under setting [7], 10.8 ± 1.1 h; under setting [8], 4.23 ± 0.25 h; under setting [9], 6.67 ± 0.38 h; under setting [10], 5.595 ± 0.053 h; under setting [11], 11.9 ± 0.35 h.

Consider “MKKKIESYQGAAGGWGAVKSVANAVRKQMDIRQDVIAMFDMNKPEGFDCPGCAWPDPKHSASFDICENGAKAIAWEVTDKQVNASFFAENTVQSLLTWGDHELEAAGRLTQPLKYDAVSDCYKPLSWQQAFDEIGARLQSYSDPNQVEFYTSGRTSNEAAFLYQLFAREYGSNNFPDCSNMCHEPTSVGLAASIGVGKGTVLLEDFEKCDLVICIGHNPGTNHPRMLTSLRALVKRGAKMIAINPLQERGLERFTAPQNPFEMLTNSETQLASAYYNVRIGGDMALLKGMMRLLIERDDAASAAGRPSLLDDEFIQTHTVGFDELRRDVLNSEWKDIERISGLSQTQIAELADAYAAAERTIICYGMGITQHEHGTQNVQQLVNLLLMKGNIGKPGAGICPLRGHSNVQGDRTVGITEKPSAEFLARLGERYGFTPPHAPGHAAIASMQAICTGQARALICMGGNFALAMPDREASAVPLTQLDLAVHVATKLNRSHLLTARHSYILPVLGRSEIDMQKNGAQAVTVEDSMSMIHASRGVLKPAGVMLKSECAVVAGIAQAALPQSVVAWEYLVEDYDRIRNDIEAVLPEFADYNQRIRHPGGFHLINAAAERRWMTPSGKANFITSKGLLEDPSSAFNSKLVMATVRSHDQYNTTIYGMDDRYRGVFGQRDVVFMSAKQAKICRVKNGERVNLIALTPDGKRSSRRMDRLKVVIYPMADRSLVTYFPESNHMLTLDNHDPLSGIPGYKSIPVELEPSN”, for which the “total protein half-life in vivo” value under setting [1] is 5.48 ± 0.53 h; the “total protein half-life in vivo” value under setting [2] is 3.76 ± 1.3 h; the “total protein half-life in vivo” value under setting [12] stood at 4.01 ± 0.19 h; the “total protein half-life in vivo” value under setting [3] stood at 4.01 ± 0.03 h; the “total protein half-life in vivo” value under setting [4] came out at 3.52 ± 0.085 h; the “total protein half-life in vivo” value under setting [5] was 2.35 ± 0.34 h. The “total protein half-life in vivo” value runs as follows: under setting [6], 2.95 ± 0.35 h; under setting [7], 3.6 ± 0.45 h; under setting [8], 3.5 ± 0.52 h; under setting [9], 4.87 ± 1.3 h; under setting [10], 3.7 ± 0.2 h; under setting [11], 4.31 ± 0.17 h.

Consider “MEISWGRALWRNFLGQSPDWYKLALIIFLIVNPLIFLISPFVAGWLLVAEFIFTLAMALKCYPLLPGGLLAIEAVFIGMTSAEHVREEVAANLEVLLLLMFMVAGIYFMKQLLLFIFTRLLLSIRSKMLLSLSFCVAAAFLSAFLDALTVVAVVISVAVGFYGIYHRVASSRTEDTDLQDDSHIDKHYKVVLEQFRGFLRSLMMHAGVGTALGGVMTMVGEPQNLIIAKAAGWHFGDFFLRMSPVTVPVLICGLLTCLLVEKLRWFGYGETLPEKVREVLQQFDDQSRHQRTRQDKIRLIVQAIIGVWLVTALALHLAEVGLIGLSVIILATSLTGVTDEHAIGKAFTESLPFTALLTVFFSVVAVIIDQQLFSPIIQFVLQASEHAQLSLFYIFNGLLSSISDNVFVGTIYINEAKAAMESGAITLKQYELLAVAINTGTNLPSVATPNGQAAFLFLLTSALAPLIRLSYGRMVWMALPYTLVLTLVGLLCVEFTLAPVTEWFMQMGWIATL [P0AFA7]”, for which the “total protein half-life in vivo” value was found to be 6.59 ± 0.35 h under setting [12]; 6.07 ± 0.93 h under setting [3]; 6.4 ± 0.18 h under setting [4]; 13.8 ± 0.64 h under setting [7]; 5.91 ± 0.38 h under setting [8]; 11.2 ± 4.7 h under setting [9]. In addition, the “total protein half-life in vivo” value under setting [10] stood at 6.58 ± 0.48 h and the “total protein half-life in vivo” value under setting [11] worked out at 12.8 ± 0.14 h.

Regarding “MLKPDNLPVTFGKNDVEIIARETLYRGFFSLDLYRFRHRLFNGQMSHEVRREIFERGHAAVLLPFDPVRDEVVLIEQIRIAAYDTSETPWLLEMVAGMIEEGESVEDVARREAIEEAGLIVKRTKPVLSFLASPGGTSERSSIMVGEVDATTASGIHGLADENEDIRVHVVSREQAYQWVEEGKIDNAASVIALQWLQLHHQALKNEWA [Q93K97]”, the “total protein half-life in vivo” value is, setting by setting: under setting [2], 4.47 ± 0.8 h; under setting [12], 4.6 ± 0.65 h; under setting [3], 4.759 ± 0.044 h; under setting [4], 4.63 ± 0.46 h; under setting [5], 3.05 ± 0.36 h; under setting [6], 5.79 ± 0.16 h. For the same sequence, the “total protein half-life in vivo” value was 11 ± 0.82 h under setting [7]; 4.23 ± 0.34 h under setting [8]; 7.1411 ± 0.0014 h under setting [9]; 5.98 ± 0.42 h under setting [10]; 12.9 ± 0.41 h under setting [11].

Turning to “MSRVNPLSSLSLLAVLVLAGCSSQAPQPLKKGEKAIDVASVVRQKMPASVKDRDAWAKDLATTFESQGLAPTLENVCSVLAVAQQESNYQADPAVPGLSKIAWQEIDRRAERMHIPAFLVHTALKIKSPNGKSYSERLDSVRTEKQLSAIFDDLINMVPMGQTLFGSLNPVRTGGPMQVSIAFAEQHTKGYPWKMDGTVRQEVFSRRGGLWFGTYHLLNYPASYSAPIYRFADFNAGWYASRNAAFQNAVSKASGVKLALDGDLIRYDSKEPGKTELATRKLAAKLGMSDSEIRRQLEKGDSFSFEETALYKKVYQLAETKTGKSLPREMLPGIQLESPKITRNLTTAWFAKRVDERRARCMKQ”, the “total protein half-life in vivo” value under setting [1] stood at 6.06 ± 0.21 h; the “total protein half-life in vivo” value under setting [4] was found to be 5.8 ± 0.24 h; the “total protein half-life in vivo” value under setting [5] is 3.28 ± 0.2 h; the “total protein half-life in vivo” value under setting [6] came out at 6.11 ± 0.086 h; the “total protein half-life in vivo” value under setting [7] is 11.2 ± 0.54 h; the “total protein half-life in vivo” value under setting [8] was 6.93 ± 0.84 h. Further, the “total protein half-life in vivo” value by setting is: under setting [9], 12.9 ± 0.39 h; under setting [10], 6.11 ± 0.4 h; under setting [11], 12.4 ± 0.53 h.
